Starred links: 1 amine or outer side, 2 acyl side, 3 side chain; linkers in the order of their positions; H or OH if unused. Non-standard residues stand in square brackets, D forms with d. TyrEtNAc = (2S)-3-[4-(2-acetamidoethoxy)phenyl]-2-amino-propanoic acid, CC(=O)NCCOc1ccc(C[C@H](N[*:1])C(=O)[*:2])cc1; alThrOEt = O-ethyl-L-allothreonine, CCO[C@@H](C)[C@H](N[*:1])C(=O)[*:2]; dPro(4R-(4-pyridylmethyl)) = O=C(O)[C@H]1C[C@@H](Cc2ccncc2)CN1; Trp(βS-Me,4-F) = C[C@@H](c1c[nH]c2cccc(F)c12)[C@H](N)C(=O)O; Bip(4'-CONH2) = NC(=O)c1ccc(-c2ccc(C[C@H](N)C(=O)O)cc2)cc1; Ala(1-bicyclo(1.1.1)pentyl) = N[C@@H](CC12CC(C1)C2)C(=O)O; dPro(3S-(4-F-Bn)) = O=C(O)[C@@H]1NCC[C@@H]1Cc1ccc(F)cc1; Ala(pyrimidin-5-yl) = N[C@@H](Cc1cncnc1)C(=O)O; Phe(4-CONH2) = NC(=O)c1ccc(C[C@H](N)C(=O)O)cc1; Phe(4-COOH) = N[C@@H](Cc1ccc(C(=O)O)cc1)C(=O)O; Pro(cis-4-F) = O=C(O)[C@@H]1C[C@H](F)CN1; Ala(4-THP) = N[C@@H](CC1CCOCC1)C(=O)O; d(αMeD) = C[C@@](N)(CC(=O)O)C(=O)O; 4Pal = N[C@@H](Cc1ccncc1)C(=O)O; d(αMeS) = C[C@@](N)(CO)C(=O)O; NMeDab = CN[C@@H](CCN)C(=O)O; Dab = NCC[C@H](N)C(=O)O; Aib = CC(C)(N)C(=O)O
B1: SEQ ID NO 377 (peptide)
peptide: cyclo([TyrEtNAc][4Pal][Phe(4-CONH2)]G[Pro(cis-4-F)][Trp(βS-Me,4-F)][Aib]SW[d(αMeD)][Ala(4-THP)]Q[Dab]G[dPro(4R-(4-pyridylmethyl))])
SMILES: CC(=O)NCCOc1ccc(C[C@@H]2NC(=O)[C@H]3C[C@@H](Cc4ccncc4)CN3C(=O)CNC(=O)[C@H](CCN)NC(=O)[C@H](CCC(N)=O)NC(=O)[C@H](CC3CCOCC3)NC(=O)[C@@](C)(CC(=O)O)NC(=O)[C@H](Cc3c[nH]c4ccccc34)NC(=O)[C@H](CO)NC(=O)C(C)(C)NC(=O)[C@H]([C@@H](C)c3c[nH]c4cccc(F)c34)NC(=O)[C@@H]3C[C@H](F)CN3C(=O)CNC(=O)[C@H](Cc3ccc(C(N)=O)cc3)NC(=O)[C@H](Cc3ccncc3)NC2=O)cc1
B2: SEQ ID NO 378 (peptide)
peptide: cyclo([TyrEtNAc][4Pal][Phe(4-CONH2)]G[Pro(cis-4-F)][Trp(βS-Me,4-F)][Aib]SW[d(αMeS)][Ala(4-THP)]Q[Dab]G[dPro(4R-(4-pyridylmethyl))])
SMILES: CC(=O)NCCOc1ccc(C[C@@H]2NC(=O)[C@H]3C[C@@H](Cc4ccncc4)CN3C(=O)CNC(=O)[C@H](CCN)NC(=O)[C@H](CCC(N)=O)NC(=O)[C@H](CC3CCOCC3)NC(=O)[C@@](C)(CO)NC(=O)[C@H](Cc3c[nH]c4ccccc34)NC(=O)[C@H](CO)NC(=O)C(C)(C)NC(=O)[C@H]([C@@H](C)c3c[nH]c4cccc(F)c34)NC(=O)[C@@H]3C[C@H](F)CN3C(=O)CNC(=O)[C@H](Cc3ccc(C(N)=O)cc3)NC(=O)[C@H](Cc3ccncc3)NC2=O)cc1
B3: SEQ ID NO 379 (peptide)
peptide: cyclo([Bip(4'-CONH2)][4Pal][Phe(4-COOH)]G[Pro(cis-4-F)][Trp(βS-Me,4-F)][Aib]SW[d(αMeD)][Ala(pyrimidin-5-yl)]Q[Dab]G[dPro(3S-(4-F-Bn))])
SMILES: C[C@@H](c1c[nH]c2cccc(F)c12)[C@@H]1NC(=O)[C@@H]2C[C@H](F)CN2C(=O)CNC(=O)[C@H](Cc2ccc(C(=O)O)cc2)NC(=O)[C@H](Cc2ccncc2)NC(=O)[C@H](Cc2ccc(-c3ccc(C(N)=O)cc3)cc2)NC(=O)[C@H]2[C@@H](Cc3ccc(F)cc3)CCN2C(=O)CNC(=O)[C@H](CCN)NC(=O)[C@H](CCC(N)=O)NC(=O)[C@H](Cc2cncnc2)NC(=O)[C@@](C)(CC(=O)O)NC(=O)[C@H](Cc2c[nH]c3ccccc23)NC(=O)[C@H](CO)NC(=O)C(C)(C)NC1=O
B4: SEQ ID NO 376 (peptide)
peptide: cyclo([TyrEtNAc][Ala(1-bicyclo(1.1.1)pentyl)][Phe(4-CONH2)]G[Pro(cis-4-F)][Trp(βS-Me,4-F)][Aib]SW[d(αMeD)][Ala(4-THP)]Q[Dab]G[dPro(4R-(4-pyridylmethyl))])
SMILES: CC(=O)NCCOc1ccc(C[C@@H]2NC(=O)[C@H]3C[C@@H](Cc4ccncc4)CN3C(=O)CNC(=O)[C@H](CCN)NC(=O)[C@H](CCC(N)=O)NC(=O)[C@H](CC3CCOCC3)NC(=O)[C@@](C)(CC(=O)O)NC(=O)[C@H](Cc3c[nH]c4ccccc34)NC(=O)[C@H](CO)NC(=O)C(C)(C)NC(=O)[C@H]([C@@H](C)c3c[nH]c4cccc(F)c34)NC(=O)[C@@H]3C[C@H](F)CN3C(=O)CNC(=O)[C@H](Cc3ccc(C(N)=O)cc3)NC(=O)[C@H](CC34CC(C3)C4)NC2=O)cc1
B5: SEQ ID NO 374 (peptide)
peptide: cyclo([TyrEtNAc][Ala(1-bicyclo(1.1.1)pentyl)][Phe(4-COOH)]G[Pro(cis-4-F)][Trp(βS-Me,4-F)][Aib]SW[d(αMeD)][Ala(4-THP)]Q[Dab]G[dPro(4R-(4-pyridylmethyl))])
SMILES: CC(=O)NCCOc1ccc(C[C@@H]2NC(=O)[C@H]3C[C@@H](Cc4ccncc4)CN3C(=O)CNC(=O)[C@H](CCN)NC(=O)[C@H](CCC(N)=O)NC(=O)[C@H](CC3CCOCC3)NC(=O)[C@@](C)(CC(=O)O)NC(=O)[C@H](Cc3c[nH]c4ccccc34)NC(=O)[C@H](CO)NC(=O)C(C)(C)NC(=O)[C@H]([C@@H](C)c3c[nH]c4cccc(F)c34)NC(=O)[C@@H]3C[C@H](F)CN3C(=O)CNC(=O)[C@H](Cc3ccc(C(=O)O)cc3)NC(=O)[C@H](CC34CC(C3)C4)NC2=O)cc1
B6: SEQ ID NO 380 (peptide)
peptide: cyclo([Bip(4'-CONH2)][4Pal][Phe(4-CONH2)]G[Pro(cis-4-F)][Trp(βS-Me,4-F)][Aib]SW[d(αMeD)][Ala(pyrimidin-5-yl)]Q[Dab]G[dPro(3S-(4-F-Bn))])
SMILES: C[C@@H](c1c[nH]c2cccc(F)c12)[C@@H]1NC(=O)[C@@H]2C[C@H](F)CN2C(=O)CNC(=O)[C@H](Cc2ccc(C(N)=O)cc2)NC(=O)[C@H](Cc2ccncc2)NC(=O)[C@H](Cc2ccc(-c3ccc(C(N)=O)cc3)cc2)NC(=O)[C@H]2[C@@H](Cc3ccc(F)cc3)CCN2C(=O)CNC(=O)[C@H](CCN)NC(=O)[C@H](CCC(N)=O)NC(=O)[C@H](Cc2cncnc2)NC(=O)[C@@](C)(CC(=O)O)NC(=O)[C@H](Cc2c[nH]c3ccccc23)NC(=O)[C@H](CO)NC(=O)C(C)(C)NC1=O
B7: SEQ ID NO 375 (peptide)
peptide: cyclo([TyrEtNAc][Ala(1-bicyclo(1.1.1)pentyl)][Phe(4-COOH)]G[Pro(cis-4-F)][Trp(βS-Me,4-F)][Aib]SW[d(αMeS)][Ala(4-THP)]Q[Dab]G[dPro(4R-(4-pyridylmethyl))])
SMILES: CC(=O)NCCOc1ccc(C[C@@H]2NC(=O)[C@H]3C[C@@H](Cc4ccncc4)CN3C(=O)CNC(=O)[C@H](CCN)NC(=O)[C@H](CCC(N)=O)NC(=O)[C@H](CC3CCOCC3)NC(=O)[C@@](C)(CO)NC(=O)[C@H](Cc3c[nH]c4ccccc34)NC(=O)[C@H](CO)NC(=O)C(C)(C)NC(=O)[C@H]([C@@H](C)c3c[nH]c4cccc(F)c34)NC(=O)[C@@H]3C[C@H](F)CN3C(=O)CNC(=O)[C@H](Cc3ccc(C(=O)O)cc3)NC(=O)[C@H](CC34CC(C3)C4)NC2=O)cc1
B8: SEQ ID NO 381 (peptide)
peptide: cyclo([TyrEtNAc][4Pal][Phe(4-CONH2)]G[Pro(cis-4-F)][Trp(βS-Me,4-F)][Aib]SW[Aib][alThrOEt]Q[NMeDab]G[dPro(4R-(4-pyridylmethyl))])
SMILES: CCO[C@@H](C)[C@@H]1NC(=O)C(C)(C)NC(=O)[C@H](Cc2c[nH]c3ccccc23)NC(=O)[C@H](CO)NC(=O)C(C)(C)NC(=O)[C@H]([C@@H](C)c2c[nH]c3cccc(F)c23)NC(=O)[C@@H]2C[C@H](F)CN2C(=O)CNC(=O)[C@H](Cc2ccc(C(N)=O)cc2)NC(=O)[C@H](Cc2ccncc2)NC(=O)[C@H](Cc2ccc(OCCNC(C)=O)cc2)NC(=O)[C@H]2C[C@@H](Cc3ccncc3)CN2C(=O)CNC(=O)[C@H](CCN)N(C)C(=O)[C@H](CCC(N)=O)NC1=O

Target: Recombinant human IL-1β (BioLegend 579404) (human, UniProt P01584 117-269)
Assay: cell-based or functional assay

B1 and B2 are within 1.5-fold of each other in “MRC5 IC50” value: 40 pM for the first, 43 pM for the second.

Compared with B3, B4 is 3-fold higher in “MRC5 IC50” value: 16 pM for the first, 48 pM for the second.

B5 and B6 are within 1.5-fold of each other in “MRC5 IC50” value: 17 pM for the first, 18 pM for the second.

First: B7
Second: B8
The “MRC5 IC50” value of the first is 1.6-fold lower: 25 pM for the first, 41 pM for the second.

Reference: patent US20260242419A1, “A CYCLIC PEPTIDE FOR TRAPPING INTERLEUKIN-1 BETA” (Merck Sharp & Dohme LLC, priority 2023, published 2026)
